Source: publication doi:10.1101/2021.12.28.474321 (bioRxiv, 2021)

B1: recombinant fructose-1,6-bisphosphate aldolase 3 from Chlamydomonas reinhardtii (CrFBA3) (enzyme, UniProt Q42690 28-377, looked up)
chain: GKYDEELIKTAGTVASKGRGILAMDESNATCGKRLDSIGVENTEENRRAYRELLVTAPGLGQYISGAILFEETLYQSTASGKKFVDVMKEQNIVPGIKVDKGLVPLSNTNGESWCMGLDGLDKRCAEYYKAGARFAKWRSVVSIPHGPSIIAARDCAYGLARYAAIAQNAGLVPIVEPEVLLDGEHDIDRCLEVQEAIWAETFKYMADNKVMFEGILLKPAMVTPGADCKNKAGPAKVAEYTLKMLRRRVPPAVPGIMFLSGGQSELESTLNLNAMNQSPNPWHVSFSYARALQNTVLKTWQGKPENVQAAQAALLKRAKANSDAQQGKYDATTEGKEAAQGMYEKGYVY

How the values were obtained:
[1] = molecular target: FBA3 in soluble extracts of Chlamydomonas cultures (Chlamydomonas reinhardtii (endogenous in Chlamydomonas cultures)); test: SEC
SEC = molecular target: the molecule itself; test: SEC

| Molecule | stoichiometry N [1] | stoichiometry N (SEC) |
| --- | --- | --- |
| FBA3 in soluble extracts of Chlamydomonas cultures (enzyme) | 4 |  |
| B1 |  | 4 |
